Results taken from the RNAGym collection of RNA variant scans (doi:10.1073/pnas.2313332121).

B1: TPR t1 (parent)
chain: GACCAAUCUGCCCUCAGAGCUCGAGAACAUCUUCGGAUGCAGAGGAGGCAGGCUUCGGUGGCGCGAUAGCGCCAACGUCCUCAACCUCCAAUGCAUCCCACCACAUGAUGAUGCCUGAAGAGCCUUGGUUUUUUG

Variants of: B1
Test: polymerase ribozyme fitness, log enrichment relative to wild type (log ratio); higher = more active; in vitro selection for triplet polymerase activity
Method in brief: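 For each subunit of a heterodimeric triplet polymerase ribozyme, a mutant library was built by PCR and transcribed, then taken through a single in vitro selection round in triplicate. Selection involved annealing to a biotinylated primer, the partner subunit and triplets, incubation frozen at −7 °C, gel excision of extended constructs, capture on streptavidin beads and RT-PCR. Genotypes were retained after Illumina sequencing of inputs and outputs only with ≥10 input reads and ≥1 read in each output. Fitness is defined as the logarithm of a genotype's enrichment relative to wild-type enrichment, using inverse-variance-weighted averages across replicates, with the logarithm taken to base 2.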

Row | Variant | polymerase ribozyme fitness (log ratio)
1 | GACCAAUCUGCCUUCAGAGCUCGAGAACAUCUUCGGUUGCAGAGGAGGCAGGCUUCGGUGGCGUGAUAGCGCCAACGUCCUCAACCUCCAAAGCAUCCCACCACAUGAUGAUGCCUGAAGAGCCUCGGUUUUUUG [C13U A37U C64U U92A U126C] | -3.51
2 | GACCAAUCUGCCUUCAGUGCUCGAGAACAUCUUCGGAUGCACAGGAGGCAGGCUUCGGUGGCGCGAUAGCGCCAACGUCCUCAACCACCAAUGCAUCCCACCACAUGAUGAUGCCUGAAGAGCCUUGGUUUUUUG [C13U A18U G42C U87A] | -0.601
3 | GACCAAUCUGCCGUCAGAGCACGAGAACAUCUUCGGAUGCAGAGGAGGCAGCCUUCGGUGUCGCGAUAGCGCCAACGUCCUCAACCUCCACUGCAUCCCACCACAUGAUGAUGCCUGAACAGCCUUGGUUUUUUG [C13G U21A G52C G61U A91C G120C] | -2.36
4 | GACCAAUCUGCCGUCAGAGCUCGAGAACAUCUUCGGAUGCAGAGGAGGCAGGCUUCGGUGGCGCGAUAGCGCCAACGUCCUCAACCUCCAAUGCAUCCCACCACAUGAUGAUGCCUGAAGAGCCUUGCUUUUUUG [C13G G128C] | -3.48
5 | GACCAAUCUGCCUUCAGCGCUCGAGAACAUCUUCGGCUGCAGAGGAGGUAGGCUUCGGUGGCGCGAUAGCGCCAACGUCCUCAACCUCCAAUGCAUCCCACCACAUGAUGAUGCCUGAAGCGCCUUGGUUUUUUG [C13U A18C A37C C49U A121C] | -2.39
6 | GACCAAUCUGCCUUCAGAGCUAGAGCACAUCUUCGGAUGCAGAGGAGGCAGGCUUGGGUGGCGCGAUAGCGCCAACGUCCUCAACCUCCAAUGCAUCCCACCACAUGAUGAUGCCUGAAGAACCUUGGUUUUUUG [C13U C22A A26C C56G G122A] | -4.98
7 | GACCAAUCUGCCUUCAGAGCUCGAGAACAUCUUCGGAUGCAGAGGAGGCAGGCUUCGGUGGCGCGAUAGCGCCAACGUCCUCAUCCUCCAAUGCAUCCCACCACAUGAUGAUUCCAGAGGAGCCUUGGUUUUUUU [C13U A84U G113U U116A A119G G135U] | -6.59
8 | GACCAAUCUGCCUUCAGAGAUCGAGAACAUCUUCGGAGGCAGAGGAGGCAGGCUUCGGUGGCGCGAUAGCGCCAACGUCCUCAACCUCCAAUGCAUCCCACCACAUGAUGAUGCCUGAAGAGCCUUGGUUUUUUG [C13U C20A U38G] | -4.15
9 | GACCAAUCUGCCUUUAGAGCUCGAGAACAUCUUCGGUUGCUGAGGAGGCAGGCUUCGGGGGCGCGAUAGCGCCAACGUCCUCAACCUCCAAUGCAUCCCACCACAUGAUGAUGCCUGAAGAGCCUUGGUUUUUUG [C13U C15U A37U A41U U59G] | -1.74
10 | GACCAAUCUGCCGUCAGAGCUCGAGAACAUCUUCGGAUGCAGAGGAGGCAGGCUUCGGUGGCGCGAUAGCGCCAACGUCCUCAACCUCCAAUGCAUCCCACCACAUGAUGAUGCCUGAAGAGCCUUGGUUUAUUG [C13G U132A] | -1.5
11 | GACCAAUCUGCCGUCAGAGCUCGAGAACAUCUUCGGAUGCAGAGGAGGCAGGCUUCGGUGGCGCGAUAGCUCCAACGUCCUCAACCUCCAAUGCAUCCCACCACAUGAUGACGCCUGAAGAGCCUUGGUUUUUUG [C13G G71U U112C] | -0.426
12 | GACCAAUCUGCCGUCAGAGCUCGAGAACAUCUUCGGAUGCAGAGGAGGCAGGCUUCGGUGGCGCGAUAGCGCCAACGUCCUCAACCUCCAAUGCAUCCCACCACACGAUGAUGCCUGAAGAGCCUUGGUUUUUUG [C13G U106C] | -2.21
13 | GACCAAUCUGCCUUCAGAGCUCGAGAACAUCUUCGGAUGCAGAGGUGGCAGGCUUCGGUGGCGCGAUAGCGCCAACGUCCUCAACCUCCAAUGCAUCCCACCACAUGAUGAUGCCUGAAGAGCCUUGGUUUUUUG [C13U A46U] | -0.902
14 | GACCAAUCUGCCUUCAGAGCUCGAGAACCUCUUCGGAUGCAGAGGAGGCAGGCUUUGGUGGCGCGAUAGCGCCAACGUCCUCAACCUCCAAUGCAUCCCACCACAUGAUGAUGCCUGAAGAGCCUUGGUUUUUUG [C13U A29C C56U] | -2.25
15 | GACCAAUCUGCCUUCAGAGCUCGAGAAGAUCUUCGGAUGCAGAGGAGGCAGGCUUCGGUGGCUCGAUAGCGCCAACGUCCUCAACCUCCAAUGCAUCUCACCACAUGAUGAUGCUUGAAGAGCCUUGGUUUUUUG [C13U C28G G63U C98U C115U] | -5.89
16 | GACCAAUCUGCCUUCAGAGCUCGAGGACAUCUUCGGAUGCAGAGGAGGCAGGCUUCGAUGGCGCGAUAGCGCCAACGUCCUCAACCUCCAAUGCAUCCCACCACAUGAUGAUGCCUGAAGAGCCUUGGUUUUUUG [C13U A26G G58A] | -3.1
17 | GACCAAUCUGCCUUCAGAGCUCGAGAACCUCUUCGGAUGCAGAGGAGGCAGGCUUCGGUGUCGCGAUAGCGCCAACGUCCUCAACCUCCAAUGCAUCCCACCACAUGAUGAUGCCUGAAGAGCCUUGGUUUUUUG [C13U A29C G61U] | -2.08
18 | GACCAAUCUGCCUUGAGAGCUCGAGAACAUCUUCGGAUGCAGAGGAGGCGGGCUUCGGUGACGCGAUAGCGCCAACGUCCUCAACCUCCAAUGCAUCCCACCACAUGAUGAUGCCUGAAGAGCCUUGGUUUUUUG [C13U C15G A50G G61A] | -1.6
19 | GACCAAUCUGCCGUCAGAGCUCGAGAACAUCUUCGGAUGCAGAGGAGGCAGGCUUCGGUGGCGCGAUAGCGCCAACGUCCUCAACCUCCAAUGCAUCCCACCACAUGAUGAUACCUGAAGAGCCUUGGUUUUUUG [C13G G113A] | -2.45
20 | GACCAAUCUGCCGUCAGAGCUCGAGAACAUCUUCGGAUGCAGAGGAGGCAGGCUUCGGUGGCGCGAUAGCGCCAACGGCCUCAACCUCCAAUGCAUCCCACCACAUGAUGAUGCCUGAAGAGCCUUGGUUUUUUG [C13G U78G] | -2.05
21 | GACCAAUCUGCCGUCAGAGCUCGAGAACAUCUUCGGAUGCAGAGGAGGCAGGCUUCGGUGGCGCGAUAGCGCCAACGUCCCCAACCUCCAAUGCAUCCCACCACAUGAUGAUGCCUGAAGAGCCUUGGUUUUUUG [C13G U81C] | -1.96
